Results as given in US20250213686A1 (published 2025).

T1: DUF4435 domain-containing protein [Bacillus toyonensis] (IGRP305_324_path5) peptide on HLA-DRA*01:01 / … (human)
T1 peptide: YDEVLQIPTHQENTQ

T2: UDP-N-acetylglucosamine--N-acetylmuramyl-(pentapeptide) pyrophosphoryl-undecaprenol N-acetylglucosamine … (human)
T2 peptide: AASFLHIPYFTHECD

T3: TPA: UDP-N-acetylglucosamine--N-acetylmuramyl-(pentapeptide) pyrophosphoryl-undecaprenol N-acetylglucosamine … (human)
T3 peptide: AARFLHIPYYTHECD

T4: undecaprenyldiphospho-muramoylpentapeptide beta-N-acetylglucosaminyltransferase [Treponema sp.] … (human)
T4 peptide: AAKFLHIPVFTHECD

T5: exodeoxyribonuclease V subunit beta [Chlamydia caviae] (IGRP305_324_path12) peptide on HLA-DRA*01:01 / … (human)
T5 peptide: CSPFLQIPSYEPIEY

T6: hypothetical protein V495_01361 [Pseudogymnoascus sp. VKM F-4514 (FW-929)] (IGRP305_324_path15) peptide on … (human)
T6 peptide: SAMFLDIPTHPEEHS

T7: hypothetical protein GX51_07420 [Blastomyces parvus] (IGRP305_324_path16) peptide on HLA-DRA*01:01 / … (human)
T7 peptide: KYEFLPIPTYEEATS

T8: hypothetical protein T551_03071 [Pneumocystis jirovecii RU7] (IGRP305_324_path17) peptide on HLA-DRA*01:01 / … (human)
T8 peptide: FTDFLNIPSYEELND

T9: hypothetical protein KMI_05g09430 [Encephalitozoon hellem] (IGRP305_324_path18) peptide on HLA-DRA*01:01 / … (human)
T9 peptide: LSEFLKIPNHEITLL

T10: hypothetical protein ECU05_1220 [Encephalitozoon cuniculi GB-M1] (IGRP305_324_path19) peptide on … (human)
T10 peptide: QQKFLKNIDTHEEAE

T11: WD domain, G-beta repeat-containing protein [Toxoplasma gondii ARI] (IGRP305_324_path20) peptide on … (human)
T11 peptide: ESLFLQLSTHTEASA

T12: Preproinsulin (PPI) peptide on HLA-DRA*01:01 / HLA-DRB1*04:01 (human)
T12 peptide: SLQPLALEGSLQKRG


Assays:
[1] = molecular target: T1, DUF4435 domain-containing protein …; assay: activation reporter or marker
[2] = molecular target: T2, UDP-N-acetylglucosamine--N-acetylmuramyl …; assay: activation reporter or marker
[3] = molecular target: T3, TPA: …; assay: activation reporter or marker
[4] = molecular target: T4, undecaprenyldiphospho-muramoylpentapepti …; assay: activation reporter or marker
[5] = molecular target: T5, exodeoxyribonuclease V subunit beta …; assay: activation reporter or marker
[6] = molecular target: T6, hypothetical protein V495_01361 …; assay: activation reporter or marker
[7] = molecular target: T7, hypothetical protein GX51_07420 …; assay: activation reporter or marker
[8] = molecular target: T8, hypothetical protein T551_03071 …; assay: activation reporter or marker
[9] = molecular target: T9, hypothetical protein KMI_05g09430 …; assay: activation reporter or marker
[10] = molecular target: T10, hypothetical protein ECU05_1220 …; assay: activation reporter or marker
[11] = molecular target: T11, WD domain, G-beta repeat-containing …; assay: activation reporter or marker
IGRP (islet-specific …) [12] = molecular target: T13, IGRP (islet-specific glucose-6-phosphatase-related protein) peptide on HLA-DRA*01:01 / HLA-DRB1*04:01 (human); assay: lower end of the range; % CD137-expressing cells; LV-transduced CD4+ T cells 3:1 with peptide-pulsed HLA-DR4 K562 cells, 20 h; full-length, on cells
IGRP (islet-specific …) [13] = molecular target: T13, IGRP (islet-specific …); assay: upper end of the range; % CD137-expressing cells; LV-transduced CD4+ T cells 3:1 with peptide-pulsed HLA-DR4 K562 cells, 20 h; full-length, on cells
IGRP (islet-specific …) [14] = molecular target: T13, IGRP (islet-specific …); assay: lower end of the range; CD154 surface expression intensity; LV-transduced CD4+ T cells 3:1 with peptide-pulsed HLA-DR4 K562 cells, 20 h; full-length, on cells
IGRP (islet-specific …) [15] = molecular target: T13, IGRP (islet-specific …); assay: upper end of the range; CD154 surface expression intensity; LV-transduced CD4+ T cells 3:1 with peptide-pulsed HLA-DR4 K562 cells, 20 h; full-length, on cells
IGRP (islet-specific …) [16] = molecular target: T13, IGRP (islet-specific …); assay: proliferation
[17] = molecular target: T12, Preproinsulin (PPI) peptide on …; assay: proliferation

Row | Binder | binding result [1] | binding result [2] | binding result [3] | binding result [4] | binding result [5] | binding result [6] | binding result [7] | binding result [8] | binding result [9] | binding result [10] | binding result [11] | EC50 of peptide (IGRP (islet-specific …) [12]) | EC50 of peptide (IGRP (islet-specific …) [13]) | EC50 of peptide (IGRP (islet-specific …) [14]) | EC50 of peptide (IGRP (islet-specific …) [15]) | binding result (IGRP (islet-specific …) [16]) | binding result [17]
1 | T1D2 TCR (TCR, V domains shown) Valpha: DQQVKQNSPSLSVQEGRISILNCDYTNSMFDYFLWYKKYPAEGPTFLISISSIKDKNEDGRFTVFLNKSAKHLSLHIVPSQPGDSAVYFCAATRTSGTYKYIFGTGTRLKVLA Vbeta: NAGVTQTPKFRILKIGQSMTLQCTQDMNHNYMYWYRQDPGMGLKLIYYSVGAGITDKGEVPNGYNVSRSTTEDFPLRLELAAPSQTSVYFCASSPWGAGGTDTQYFGPGTRLTVL | no recognition | no recognition | no recognition | no recognition | no recognition | no recognition | no recognition | no recognition | no recognition | no recognition | no recognition | ≥ 0.03 µg/mL | ≤ 0.1 µg/mL | ≥ 0.1 µg/mL | ≤ 0.3 µg/mL | – | –
2 | T1D4 TCR (TCR, V domains shown) Valpha: KDQVFQPSTVASSEGAVVEIFCNHSVSNAYNFFWYLHFPGCAPRLLVKGSKPSQQGRYNMTYERFSSSLLILQVREADAAVYYCAVEDLNQAGTALIFGKGTTLSVSS Vbeta: KAGVTQTPRYLIKTRGQQVTLSCSPISGHRSVSWYQQTPGQGLQFLFEYFSETQRNKGNFPGRFSGRQFSNSRSEMNVSTLELGDSALYLCASSLALGQGNQQFFGPGTRLTVL | – | – | – | – | – | – | – | – | – | – | – | – | – | – | – | no recognition | no recognition
